Test results as given in PMC4394031 (Structure (London, England : 1993), 2015).

How the values were obtained:
[1] = target: T1, Human Nrp2-b1b2 (Neuropilin-2 domains b1b2, residues 276–595) (human, UniProt O60462 276-595); assay: plate competition assay with AP-tagged ligand
T1 sequence (looked up): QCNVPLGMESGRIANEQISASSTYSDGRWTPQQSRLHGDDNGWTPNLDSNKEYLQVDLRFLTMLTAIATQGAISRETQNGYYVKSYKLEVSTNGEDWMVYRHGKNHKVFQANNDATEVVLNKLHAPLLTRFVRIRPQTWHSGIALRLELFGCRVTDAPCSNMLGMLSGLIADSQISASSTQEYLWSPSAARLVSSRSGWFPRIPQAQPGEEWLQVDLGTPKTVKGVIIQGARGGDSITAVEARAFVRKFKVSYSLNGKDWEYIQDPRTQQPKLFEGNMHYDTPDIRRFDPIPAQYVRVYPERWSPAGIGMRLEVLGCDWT

[2] = target: T1, Human Nrp2-b1b2 (Neuropilin-2 domains …); assay: differential scanning fluorimetry
[3] = target: T2, AP-VEGF-C (alkaline phosphatase-tagged VEGF-C, residues 108–223) (UniProt P97953 108-223); assay: plate competition assay with AP-tagged ligand
T2 sequence (looked up): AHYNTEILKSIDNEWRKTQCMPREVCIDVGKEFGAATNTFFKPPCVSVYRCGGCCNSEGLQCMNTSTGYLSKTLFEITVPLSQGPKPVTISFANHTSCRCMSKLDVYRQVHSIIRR

[4] = target: T1, Human Nrp2-b1b2 (Neuropilin-2 domains …); assay: crystal structure
crystal structure = target: the molecule itself; assay: crystal structure

B1: ATWLPPR, an optimized peptide inhibitor of Nrp (peptide)
peptide: ATWLPPR
- IC50 [1]: 10 µM

B2: processed VEGF-C C-terminus peptide (215-RQVHSIIRR-223) (peptide)
peptide: WRQVHSIIRR
- Kd [2]: 199 µM
- Tm of Nrp2-b1b2 with 0.5 mM peptide (48.8°C without) [2]: 50.3 °C

B3: human Nrp2-b1 (residues 276–430) (domain or fragment, UniProt O60462 276-430, looked up)
chain: QCNVPLGMESGRIANEQISASSTYSDGRWTPQQSRLHGDDNGWTPNLDSNKEYLQVDLRFLTMLTAIATQGAISRETQNGYYVKSYKLEVSTNGEDWMVYRHGKNHKVFQANNDATEVVLNKLHAPLLTRFVRIRPQTWHSGIALRLELFGCRVT
- IC50 [3]: 1.5 µM

B4: VEGF-C C-terminus (219-SIIRR-223), the C-terminal five amino acids of mature VEGF-C (peptide)
peptide: SIIRR
- binding result [4]: binds

B5: Nrp2-b1b2/VEGF-C fusion (human Nrp2 residues 276–595 with VEGF-C 219-SIIRR-223 fused to its C-terminus) (other)
chain: QCNVPLGMESGRIANEQISASSTYSDGRWTPQQSRLHGDDNGWTPNLDSNKEYLQVDLRFLTMLTAIATQGAISRETQNGYYVKSYKLEVSTNGEDWMVYRHGKNHKVFQANNDATEVVLNKLHAPLLTRFVRIRPQTWHSGIALRLELFGCRVTDAPCSNMLGMLSGLIADSQISASSTQEYLWSPSAARLVSSRSGWFPRIPQAQPGEEWLQVDLGTPKTVKGVIIQGARGGDSITAVEARAFVRKFKVSYSLNGKDWEYIQDPRTQQPKLFEGNMHYDTPDIRRFDPIPAQYVRVYPERWSPAGIGMRLEVLGCDWTSIIRR
- binding result (crystal structure): binds
